Assay [1] deals with T1, human MSLN-FL-his protein (human, UniProt Q13421 296-580).
T1 construct: made in HEK293E cells, purified on nickel column; also called hMSLN-FL-his; human MSLN full-length protein; not shown: His tag
In words: competitive ELISA; row F2.16.10. For orientation: An ELISA detects its analyte on a solid surface through an enzyme-linked reagent.

For assay [2], the target named is T1, human MSLN-FL-his protein. Nature of the assay: competitive ELISA; row Tab108 (R3).
Method: (§1) In order to identify antigen-binding sites of antibodies, MSLN chimeric antibodies were grouped using competitive ELISA.
(§2) The chimeric antibodies were diluted to 2 μg/mL with PBS and allowed to coat 96-well high-adsorption ELISA plates at 50 μL/well. After the plates were coated at 4° C. overnight, 250 μL of a blocking buffer (PBS containing 2% (w/w) BSA) was added for two hours of blocking at room temperature. 40 μg/mL of the antibodies to be tested were added, and then the human MSLN-FL-His protein with an EC₈₀ concentration corresponding to each of the antibodies to be tested was added for incubation for 2 h. The plates were washed 5 times with PBS, an HRP-labeled anti-His secondary antibody (purchased from Genescript, Cat. No. A00612) was then added for incubation for 1 h, and the plates were washed 5 times again. A TMB substrate was added at 50 μL/well, and after 10 minutes of incubation at room temperature, a stop solution (1.0 M HCl) was added at 50 μL/well. OD₄₅₀ nm values were read using an ELISA plate reader (Insight, purchased from PerkinElmer), and the competition rate between the antibodies was calculated according to the OD₄₅₀ nm values using a formula.
Assay [3] addresses T1, human MSLN-FL-his protein. Nature of the assay: competitive ELISA; row F2.13.3.
Method: as §1, §2
Assay [4] addresses T1, human MSLN-FL-his protein. In words: SPR (Biacore), antibody captured on Protein A chip. (In general: In SPR one partner is held on a chip, and binding of the other changes the refractive index at the surface.)
Method: The flow cell was set at 25° C. The sample block was set at 16° C. Both were pretreated with the running buffer. In each cycle, first, the antibody to be tested was captured using the Protein A chip, and then a single concentration of human MSLN-FL-his protein was injected. […] The association was determined by injecting different concentrations of human MSLN-FL-his in solution for 240 s on end, wherein the flow rate was 30 μL/min, and the protein was diluted in a 1:1 dilution ratio from 200 nM (see detailed results for actual concentrations tested) to obtain 5 concentrations in total. The dissociation phase was monitored for up to 600 s and triggered by switching from the sample solution to the running buffer. The surface was regenerated by washing with 10 mM glycine solution (pH 1.5) at a flow rate of 30 μL/min for 30 s. The difference in bulk refractive index was corrected by subtracting the responses obtained from the goat anti-human Fc surface. Blank injections were also subtracted (=double reference). To calculate the apparent KD and other kinetic parameters, the Langmuir 1:1 model was used.
Assay [5] deals with T1, human MSLN-FL-his protein. In words: competitive ELISA; row F2.39.3.
Method: as §1, §2
For assay [6], the target named is T1, human MSLN-FL-his protein. Nature of the assay: competitive ELISA; row F2.58.8.
Method: as §1, §2
Assay [7] addresses T1, human MSLN-FL-his protein. Nature of the assay: competitive ELISA; row F2.24.10.
Method: as §1, §2
Assay [8] has as its target T1, human MSLN-FL-his protein. Nature of the assay: competitive ELISA; row F1.35.24.
Method: as §1, §2
Assay [9] addresses T1, human MSLN-FL-his protein. Nature of the assay: competitive ELISA; row F1.2.12.
Method: as §1, §2
Assay [10] concerns the target T1, human MSLN-FL-his protein. In words: competitive ELISA; row F2.17.3.
Method: as §1, §2
The target in assay [11] is T1, human MSLN-FL-his protein. Nature of the assay: competitive ELISA; row Tab142 (R1).
Method: as §1, §2
In assay [12] the target is T1, human MSLN-FL-his protein. Nature of the assay: competitive ELISA; row F1.56.1.
Method: as §1, §2
Assay [13] has as its target T1, human MSLN-FL-his protein. Nature of the assay: competitive ELISA; row Tab107 (conformation).
Method: as §1, §2
In assay [14] the target is T2, human MSLN protein endogenously expressed on OVCAR3 tumor cells (human, UniProt Q13421 296-598).
T2 construct: whole, on cells; Endogenous target on OVCAR3 cells; kept apart from the recombinant full-length construct; also called mesothelin
T2 sequence (Q13421 other isoform, or with tags, fused parts or gaps): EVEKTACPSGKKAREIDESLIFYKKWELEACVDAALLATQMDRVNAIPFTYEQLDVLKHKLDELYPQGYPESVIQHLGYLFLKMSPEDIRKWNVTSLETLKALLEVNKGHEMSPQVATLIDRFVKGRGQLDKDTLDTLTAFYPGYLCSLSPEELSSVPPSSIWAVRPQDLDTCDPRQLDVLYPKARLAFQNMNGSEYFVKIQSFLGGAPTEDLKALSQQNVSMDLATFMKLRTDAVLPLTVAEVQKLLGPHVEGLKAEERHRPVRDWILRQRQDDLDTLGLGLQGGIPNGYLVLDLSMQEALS
Nature of the assay: FACS on OVCAR3 cells.
Method: (§3) The desired cells were expanded to the logarithmic growth phase in a T-75 cell culture flask. […] After the cells from the previous step were subjected to cell counting, the cell pellet was resuspended to 2×10⁶ cells/mL in a blocking buffer of [PBS+2% (w/w) BSA] and added into a 96-well FACS reaction plate at 50 μL/well. A chimeric antibody (a sample to be tested) was added at 50 μL/well, and the plate was incubated on ice for 2 h. […] After the plate was centrifuged and washed 5 times with a PBST buffer, assay and analysis were performed by FACS (FACS CantoII, purchased from BD). Data analysis was performed by software (Flowjo) to obtain the mean fluorescence intensity (MFI) of the cells.

The target of assay [15] is T3, human MSLN-R3 protein (Met487-Ser606 of NCBI AAH09272.1) expressed on HEK293T-hMSLN-R3 cells (human, UniProt Q13421 487-606).
T3 construct: also called Region3
T3 sequence (Q13421 495-614): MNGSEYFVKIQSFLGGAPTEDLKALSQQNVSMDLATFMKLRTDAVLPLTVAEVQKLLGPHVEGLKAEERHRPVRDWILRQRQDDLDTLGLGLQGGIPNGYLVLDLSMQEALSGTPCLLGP
In words: FACS on HEK293T-hMSLN-R3 cells.
Method: as §3

Assay [16] concerns the target T4, human MSLN full-length protein (NCBI: AAH09272.1) expressed on HEK293T-hMSLN-B8 cells (human, UniProt Q13421 296-598).
T4 construct: Whole encoded precursor
Nature of the assay: FACS on HEK293T-hMSLN-B8 cells.
Method: as §3
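For Kd in this document: measured at 25 °C, analyte injected 240 s in five twofold dilutions from 200 nM, dissociation up to 600 s, double-referenced, fitted with Langmuir 1:1 model.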
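For koff in this document: measured at 25 °C, analyte injected 240 s in five twofold dilutions from 200 nM, dissociation up to 600 s, double-referenced, fitted with Langmuir 1:1 model.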
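For kon in this document: measured at 25 °C, analyte injected 240 s in five twofold dilutions from 200 nM, dissociation up to 600 s, double-referenced, fitted with Langmuir 1:1 model.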

T1 sequence (Q13421 other isoform, or with tags, fused parts or gaps): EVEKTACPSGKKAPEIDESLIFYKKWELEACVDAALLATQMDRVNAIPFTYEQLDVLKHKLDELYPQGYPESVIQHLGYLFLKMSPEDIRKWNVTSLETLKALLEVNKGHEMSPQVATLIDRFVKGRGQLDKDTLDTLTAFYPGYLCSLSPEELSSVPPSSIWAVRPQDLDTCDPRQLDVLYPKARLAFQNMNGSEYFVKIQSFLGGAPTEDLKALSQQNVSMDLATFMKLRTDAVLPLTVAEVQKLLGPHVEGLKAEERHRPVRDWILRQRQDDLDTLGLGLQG
T4 sequence (Q13421 other isoform, or with tags, fused parts or gaps limits assumed): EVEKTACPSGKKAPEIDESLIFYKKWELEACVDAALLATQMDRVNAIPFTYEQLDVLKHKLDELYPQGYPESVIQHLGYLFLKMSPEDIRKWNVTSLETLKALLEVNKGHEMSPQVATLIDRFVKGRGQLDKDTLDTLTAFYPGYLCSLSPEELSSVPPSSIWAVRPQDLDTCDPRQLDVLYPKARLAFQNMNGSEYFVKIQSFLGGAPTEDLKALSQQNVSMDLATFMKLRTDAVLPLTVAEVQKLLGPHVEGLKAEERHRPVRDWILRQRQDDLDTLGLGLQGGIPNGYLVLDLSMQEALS

B1: S009-F2.16.10 (antibody, human IgG1, kappa, V domains shown)
VH: QVQLQQPGAELIKPGASVKLSCKASGYTFTSYWMHWVKQRPGQGLEWIGIIHPNIGSTNYNERFKSKATLTVDKSSSTAYMQLSSLTSEDSAVYYCARRSSNYGDWYFDVWGTGTTVTVSS
VL: DIVMTQSHRFMSTSVGDRVSITCKASQDVGTSVAWYQQKPGQSPKLLIYWASTQHTGVPDRFTGSGSGTDFTLTINNVQSEDLLDYFCQQYSSYPLTFGAGTKLELKR
notes: human-murine chimeric antibody, human IgG1/kappa constant regions
A word on the Kd: it is the concentration at which binding is half-saturated. Usually koff stands for the first-order rate constant of dissociation. A high value points to a short-lived complex. As usually defined, the kon is the rate constant with which the complex forms. Lower therefore signals slow association. For the molecule B1, the competition rate in assay [1] was 103%; in [2], -156%; in assay [3] it was -740%; in [5], 31%; in assay [6] it was 18%; in assay [7], 88%. In addition, the competition rate in assay [8] is -18%; in assay [9], -401%; in [10], -34%; in [11] it was 98%; in [12] it was -401%; in assay [13], -51%. This molecule also had a Kd in [4] of 1.51 nM. Further, the koff in assay [4] worked out at 0.00164 s⁻¹. In assay [4], the association rate constant (kon) is 1.09e+06 M⁻¹ s⁻¹.

B2: S009-F2.17.3 (antibody, human IgG1, kappa, V domains shown)
VH: QVQLQQPGTELVTPGASVKLSCKASGYSFTSYWMHWVKQRPGQGLEWIGNINPSNGDTFYNEKFKNKATLTVDKSSSTAYMQLSSLTSEDSAVYYCARGWLRDYWGQGTTLTVSS
VL: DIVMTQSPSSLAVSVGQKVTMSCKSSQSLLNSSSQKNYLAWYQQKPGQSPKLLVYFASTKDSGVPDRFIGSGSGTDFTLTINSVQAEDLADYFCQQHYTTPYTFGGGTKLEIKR
notes: as for B1
Turning to B2, the competition rate in assay [1] was -8%; in assay [2] it was 100%; in assay [3], -814%; in assay [5], 106%; in assay [6] it was 78%; in assay [7], -13%. For the same molecule, the competition rate in [8] was 43%; in assay [9] it was -182%; in assay [10], 102%; in assay [11] it was 15%; in assay [12], -56%; in [13] it was -1%. The molecule further returned an equilibrium dissociation constant (Kd) in assay [4] of 2.72 nM. The same molecule came in with a dissociation rate constant (koff) in assay [4] of 0.000174 s⁻¹. This molecule gave a kon in assay [4] of 64100 M⁻¹ s⁻¹.

B3: S009-F2.23.12 (antibody, human IgG1, kappa, V domains shown)
VH: QVQLQQPGTELVKPGASVKLSCKASGYTFTNYWMHWVKQRPGQGLEWIGNINPSNGGPYYNERFRSKATLTVDKSSSTAYMQLSSLTSEDSAVYYCARPYYGSSYGYFDYWGQGTTLTVSS
VL: DIQMTQSPSSLSASLGGKVTITCKASQDINKYIAWYQHKPGKGPRLLIHYTSELQPGIPSRFSGNGSGRDYSFSISNLEPEDIATYYCLQYANPLRTFGGGTKLEIKR
notes: as for B1
On to B3, for which the competition rate in [1] is -42%; in assay [2], 85%; in assay [3], -1080%; in assay [5], 97%; in assay [6] it was 69%; in [7], 2%. In addition, the competition rate is 61% in [8]; -70% in assay [9]; 90% in [10]; 23% in assay [11]; 24% in [12]; 3% in [13]. In assay [4], this molecule yielded a Kd of 8.71 nM. The molecule also returned a koff in assay [4] of 0.000714 s⁻¹. In [4], this molecule displayed an on-rate (kon) of 81900 M⁻¹ s⁻¹.

B4: S009-F2.47.1 (antibody, human IgG1, kappa, V domains shown)
VH: QVQLQQPGAELVKPGASVKLSCKASGYTFTSYWMHWVKQRPGQGLEWIGMIHPNSGSTNYNEKFKSKATLTVDKSSSTAYMQLSSLTSEDSAVYYCARPVVPYWYFDVWGTGTTVTVSS
VL: DIVMTQSQKFMSTTVGDRVSITCKASQNVGTAVAWYQQKPGQSPKLLIYSASNRYTGVPDRFTGSGSGTDFTLTISNMQSEDLADYFCQQSSSYPLTFGAGTKLELKR
notes: as for B1
In the case of B4, the competition rate was 88% in [1]; -158% in [2]; -975% in [3]; 23% in [5]; 31% in assay [6]; 56% in [7]. For the same molecule, the competition rate in assay [8] is -12%; in [9], -484%; in assay [10], -88%; in assay [11], 82%; in assay [12], -324%; in [13], -42%. Besides, the Kd in [4] was 5.13 nM. In [4], this molecule displayed a dissociation rate constant (koff) of 0.0103 s⁻¹. The molecule further displayed a kon in assay [4] of 2.01e+06 M⁻¹ s⁻¹.

B5: S009-F1.2.12 (antibody, human IgG1, kappa, V domains shown)
VH: QVQLKQTGPGLVQPSQSLSITCTVSGFSLTNYAVHWVRQSPGKGLEWLGVIWSGGATDYNTVFISRLSISKDNSKSQVFFKVNSLQVDDTAIYYCARTGSGYAMDYWGQGTSVTVSS
VL: DIVLTQSPATLSVTPGDRVSLSCRTSHNVNTYLHWYQQKSHESPRLLIKYASQSISEIPSRFSGSGSGTNFTLSINSVETEDFGMYFCHQTNRWPLTFGAGTKLELKR
notes: as for B1
On to B5, for which the competition rate was -81% in assay [1]; -29% in assay [2]; 54% in [3]; 2% in assay [5]; 32% in assay [6]; -17% in assay [7]. Moreover, the competition rate in assay [8] is 4%; in assay [9], 63%; in assay [10], -31%; in assay [11], -5%; in assay [12], 74%; in assay [13] it was 29%. In addition, binding in assay [4] was characterised by a dissociation constant (Kd) of 15.8 nM. The same molecule displayed an off-rate constant (koff) in assay [4] of 0.00143 s⁻¹. This molecule showed a kon in assay [4] of 90600 M⁻¹ s⁻¹.

B6: S009-F2.39.3 (antibody, human IgG1, kappa, V domains shown)
VH: QVQLQQPGTELVKPGASVKLSCKASGYTFTNYWMHWVKQRPGQGLEWIGNINPSSGDSYYNERFMSKAKMTVDKSSSTAYMQLSSLTSEDSAVYYCARSGGLWLAFWGPGTLVTVSA
VL: DIVMTQSPSSLAMSVGQKVTMSCKSSQTLLNSVSQNNYLAWYQQKPGQSPTLLVYFASTRESGVPDRFIGGGSGTDFTLTISSVQAEDLADYFCQQHYRTPYTFGGGTNLEIKR
notes: as for B1
As to B6, the competition rate was 4% in [1]; 101% in [2]; -525% in [3]; 105% in assay [5]; 97% in assay [6]; -13% in assay [7]. Also, the competition rate is 47% in assay [8]; -208% in [9]; 107% in [10]; 19% in [11]; -87% in assay [12]; 0% in assay [13]. This molecule also registered an equilibrium dissociation constant (Kd) in assay [4] of 3.06 nM. Also, in assay [4], the koff turned out to be 0.000122 s⁻¹. In assay [4], this molecule had an association rate constant (kon) of 40000 M⁻¹ s⁻¹.

B7: S009-F2.58.8 (antibody, human IgG1, kappa, V domains shown)
VH: QVQLLQSGAELAKPGASVKLSCKASGYTFTSYWVHWVKQRPGQGLEWIGYINPNSGYTKYNQKFKDKATLTADKSSSTAYMQLSSLTYEDSAVYYCADHYYGSSRDYFDYWGQGTTLTVSS
VL: QIVLTQSPAIMSASPGEKVTMTCSASSSVSYMYWYQQRPGSSPRLLIYDTSNLASGVPVRFSGSGSGTSYSLTISRMEAEDAATYYCQQWNSYPYTFGGGTKLEIKR
notes: as for B1
As for B7, the competition rate in [1] was 41%; in [2], 60%; in [3], -396%; in [5] it was 91%; in [6] it was 111%; in assay [7], 6%. Also, the competition rate in assay [8] was 96%; in assay [9] it was -133%; in assay [10] it was 84%; in [11], 46%; in assay [12] it was 104%; in assay [13], -6%. Besides, in assay [4], the Kd turned out to be 0.524 nM. In addition, the off-rate (koff) in [4] stood at 0.000123 s⁻¹. In [4], this molecule came in with an on-rate constant (kon) of 236000 M⁻¹ s⁻¹.

B8: S009-F1.25.10 (antibody, human IgG1, kappa, V domains shown)
VH: EVQLQQSGPELVKPGASLKISCKASGYSFTDYTMNWVKQSHGKNLEWIGLFNPYNGGISYNQKFKGKATLTVDKSSNTAYMELLSLTSDDSAVYFCARDGRGGFYAMDYWGQGTSVTVSS
VL: DIQMTQTTSSLSASLGDRVTISCRASQDISIYLNWYQQKPDGPVKLLIYYTSRLHSGVPSRFSGSGSGTDFSLTISNLEQEDIATYFCQQGYTLPPWTFGGGTKLEIKR
notes: as for B1
Broadly, the EC50 is the concentration at which the effect is half-maximal. A higher EC50 goes with lower potency in that assay. In the case of B8, the “Maximum mean fluorescence intensity” value in [14] amounted to 429; in [15], 6260; in assay [16] it was 41900. For the same molecule, the EC50 in assay [15] stood at 1.44 nM.

For the origin of these results see US20250250357A1 (NANJING ZAIMING PHARMACEUTICAL, published 2025).
